Assay results reported in US7732563B2, “Cloning, sequencing and expression of a gene encoding an eukaryotic amino acid racemase, and diagnostic, therapeutic, and vaccination applications of parasite and viral mitogens” (priority 1999, dated 2010).

Test system: total spleen cells
Assay: In vitro proliferation assay of splenocytes (3H-thymidine uptake)
Format: cell-based, mouse
Method: Briefly, freshly recovered splenocytes from 8 week old male Balb/c mice seeded at a concentration of 5×10^4 cells/well were incubated for 24, 48 and 72 h in 5% FCS RPMI-1640 medium. A 16 h ^3H-thymidine pulse at 1 μCi/well was performed before harvesting. ^3H-Thymidine uptake was determined in a beta-plate liquid scintillation counter (LKB-Wallac). All points were done in triplicate and the corresponding standard deviation calculated. For comparison, ^3H-thymidine uptake after 48 h in the presence of ConA (10 μg/ml) and LPS (5 μg/ml) was 32000 c.p.m. and 3500 c.p.m., respectively. T-cell depletion was performed by incubating freshly recovered spleen cells for 30 min at 37° C. in the presence of anti-Thy 1.2 monoclonal antibody (Cedarlane) and rabbit complement (Cedarlane). In order to rule out a possible mitogenic effect due to LPS contamination in samples, proliferation assays were also performed on freshly recovered splenocytes from the LPS non-responder mouse strain C3H/Hej. Same levels of proliferation were verified. Balb/c mice were purchased from Charles River, France. C3H/Hej mice were maintained in our animal facilities.
In vitro proliferation is accomplished using freshly recovered splenocytes from BALB/c mice seeded at a density of 5×10^4 cells/well and incubated for 24, 48 and 72 h with increasing concentrations of total parasite supernatants or recombinant TcPa45 protein or other mitogen (0.07-200 μg/ml) with 0.5 μg/ml of the HPLC fractions, or with the conventionally used mitogens concanavalin A (10 μg/ml) and lipopolysaccharide (5 μg/ml) in 5% FCS in RPMI-1640 complete medium. T-cell depletion is accomplished by incubating freshly recovered spleen cells for 30 min. at 37° C. in the presence of monoclonal antibodies against Thy 1.2 and rabbit complement (Cedarlane, Le Perray en Yvelines, France). Analysis of proliferative activity of total splenocytes (5×10^4 cells/well) in the presence of 50 μg/ml enzymatically active rTcPA45 or other mitogen is also compared with the proliferation obtained using the same amounts of rTcPA45 protein or other mitogen lacking racemase activity (by heating for 10 min. at […] or by long term storage at 4° C.). Inhibition of proliferation is obtained by adding to the splenocyte cultures 50 μg/ml rTcPA45 or other mitogen pre-incubated for 10 min. at 37° C. with 1 mM inhibitor, either specific (pyrrole-2-carboxylic acid) or nonspecific (iodoacetamide or iodoacetate). Competitive assays of proliferative activity by 50 μg/ml rtcPA45 or other mitogen are done by adding increasing concentrations of specific substrates i.e., proline racemase substrates (L- or D-proline) for the mitogen rTcPA45 ranging from 3 mM to 50 mM. Controls include the incubation of splenocytes (5×10^4 cells/well) with substrate alone, i.e., 50 mM L- or D-proline in RPMI medium alone for prline racemase. Cultures are collected after a 16-hour pulse or 1 μCi/well ^3H-thymidine uptake was determined in a beta-plate liquid scintillation counter (LKB-Wallac, Orsay, France). All data points are obtained in triplicate and the corresponding standard deviation is calculated.
5×10^5 naive spleen cells/well (96 well plate) were stimulated in vitro with different doses of rTcPA45 (ranging in FIG. 4b from 0.8 to 200 μg/ml final) for 24, 48 and 72 h, at 37° C., 5% CO2. Cultures were pulsed with ^3H-Thymidine (1 μCi/well) for 16-18 h before harvesting. ^3H-thymidine incorporation was obtained after counting using a beta-plate. Results present arithmetic means of c.p.m. (counts/minute) from 6 wells/dose of rTcPA45 or wells containing medium alone (+/−SD of the means). (FIG. 4b)

[1] = spleen lymphocytes, up to 72 h culture

B1: rTcPA45: recombinant T. cruzi polyclonal activator 45, B-cell mitogen and proline racemase, codons 30-423 with C-terminal 6×His tag, from E. coli (protein)
chain: RTGQEKLLFDQKYKIIKGEKKEKKKNQRANRREHQQKREIMRFKKSFTCIDMHTEGEAARIVTSGLPHIPGSNMAEKKAYLQENMDYLRRGIMLEPRGHDDMFGAFLFDPIEEGADLGMVFMDTGGYLNMCGHNSIAAVTAAVETGIVSVPAKATNVPVVLDTPAGLVRGTAHLQSGTESEVSNASIINVPSFLYQQDVVVVLPKPYGEVRVDIAFGGNFFAIVPAEQLGIDISVQNLSRLQEAGELLRTEINRSVKVQHPQLPHINTVDCVEIYGPPTNPEANYKNVVIFGNRQADRSPCGTGTSAKMATLYAKGQLRIGETFVYESILGSLFQGRVLGEERIPGVKVPVTKDAEEGMLVVTAEITGKAFIMGFNTMLFDPTDPFKNGFTLKQ
modifications: left off: small tags and cut ends
mitogenic activity of inactivated rTcPA45 (inactivated by being heated or by long storage at 4° C.): abolished
concentration at which proliferation peaks (bell-shaped dose-response curve) [1]: 50 µg/mL
concentration from which proliferation starts (bell-shaped dose-response curve) [1]: 0.8 µg/mL
